Assay results as given in the supplement of paper PMC7877785.
± gives the uncertainty stated by the source.

Assay: self-splicing fitness, log relative to wild type (ln ratio); higher = more splicing; Tetrahymena group I intron in knt gene, E. coli kanamycin selection, DiMSum; sequences stand for … in CUCUCU…GGAGGGAAAAGUUAUCAGGCAUGCACCUGGUAGCUAGUCUUUAAACCAAUAGAUUGCAUCGGUUUAAAAGGCAAGACCGUCAAAUUGCGGGAAAGGGGUCAACAGCCGUUCAGUACCAAGUCUCAGGGGAAACUUUGAGAUGGCCUUGCAAAGGGUAUGGUAAUAAGCUGACGGACAUGGUCCUAACCACGCAGCCAAGUCCUAAGUCAACAGAUCUUCUGUUGAUAUGGAUGCAGUUCACAGACUAAAUGUCGGUCGGGGAAGAUGUAUUCUUCUCAUAAGAUAUAGUCGGACCUCUCCUUAAUGGGAGCUAGCGGAUGAAGUGAUGCAACACUGGAGCCGCUGGGAACUAAUUUGUAUGCGAAAGUAUAUUGAUUAGUUUUGGAGUACUCGUGGUCG
Method in brief: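 Library with all eight P1ex-region intron nucleotides randomised, intron inside the knt kanamycin-resistance gene on pET-22b(+), in E. coli BL21(DE3). Cells grew overnight at 37°C or 30°C on LB agar with or without 25 μg/mL kanamycin (plus 100 μg/mL carbenicillin, 50 μM IPTG, 0.2% rhamnose), in six replicate transformations. Pooled colonies were amplicon-sequenced on Illumina HiSeq 2500. DiMSum fitness is the error-weighted combination of wild-type-normalised replicate fold changes, kanamycin versus none.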

Sequence	self-splicing fitness (ln) (30 °C)	self-splicing fitness (ln) (37 °C)
CGUUAGCAAUAUUACGGGUC	-3.39 ± 0.41	-2.01 ± 0.24
CGUUAGCAAUAUUACGGUCA	-0.526 ± 0.14	-0.197 ± 0.14
CGUUAGCAAUAUUACGGUCC	–	-1.08 ± 0.48
CGUUAGCAAUAUUACGGUUU	-3.84 ± 0.34	-2.44 ± 0.21
CGUUAGCAAUAUUACGUAAG	-0.652 ± 0.1	-0.0337 ± 0.14
CGUUAGCAAUAUUACGUAUA	-2.85 ± 0.28	-2.49 ± 0.31
CGUUAGCAAUAUUACGUAUG	-2.12 ± 0.097	-0.357 ± 0.097
CGUUAGCAAUAUUACGUCUG	-0.914 ± 0.11	0.164 ± 0.13
CGUUAGCAAUAUUACGUGCU	-2.71 ± 0.2	-1.64 ± 0.21
CGUUAGCAAUAUUACGUUAG	-0.796 ± 0.081	-0.539 ± 0.1
CUAAAGCAAUAUUACGAAAC	-3.29 ± 0.45	-2.67 ± 0.41
CUAAAGCAAUAUUACGAACU	-5.08 ± 0.38	-2.04 ± 0.19
CUAAAGCAAUAUUACGAAUA	-2.73 ± 0.23	-1.94 ± 0.24
CUAAAGCAAUAUUACGAAUU	-3.57 ± 0.29	-3.9 ± 0.36
CUAAAGCAAUAUUACGACCG	0.565 ± 0.087	0.104 ± 0.11
CUAAAGCAAUAUUACGACGG	-0.113 ± 0.051	0.466 ± 0.082
CUAAAGCAAUAUUACGAGUC	-4.51 ± 0.3	-2.96 ± 0.31
CUAAAGCAAUAUUACGAUAC	–	-2.32 ± 0.31
CUAAAGCAAUAUUACGCAGG	-0.529 ± 0.12	-1.09 ± 0.19
CUAAAGCAAUAUUACGCAGU	-3.13 ± 0.31	-3.43 ± 0.32
CUAAAGCAAUAUUACGCCAU	-3.34 ± 0.33	-1.36 ± 0.27
CUAAAGCAAUAUUACGCCGG	-0.951 ± 0.16	-0.177 ± 0.18
CUAAAGCAAUAUUACGCCGU	-3.75 ± 0.27	-2.39 ± 0.25
CUAAAGCAAUAUUACGCUUC	-3.03 ± 0.22	–
CUAAAGCAAUAUUACGGAAG	-0.274 ± 0.062	0.0341 ± 0.083

Sequence	self-splicing fitness (ln) (30 °C)	self-splicing fitness (ln) (37 °C)
CUAAAGCAAUAUUACGGAUA	-3.45 ± 0.19	-2.36 ± 0.2
CUAAAGCAAUAUUACGGCAA	-3.27 ± 0.18	-1.35 ± 0.15
CUAAAGCAAUAUUACGGUCU	-3.74 ± 0.21	-3.69 ± 0.29
CUAAAGCAAUAUUACGUACU	-3.28 ± 0.17	-2.57 ± 0.22
CUAAAGCAAUAUUACGUCAC	-2.66 ± 0.14	-2.62 ± 0.22
CUAAAGCAAUAUUACGUGGA	-3.7 ± 0.2	-2.64 ± 0.19
CUAAAGCAAUAUUACGUUGG	-2.52 ± 0.12	-0.891 ± 0.1
CUAAAGCAAUAUUACGUUGU	-3.91 ± 0.12	-3.06 ± 0.15
CUAAAGCAAUAUUACGUUUC	-3.78 ± 0.18	-2.69 ± 0.23
CUACAGCAAUAUUACGACGC	-3.16 ± 0.34	-2.08 ± 0.27
CUACAGCAAUAUUACGAGUA	-3.39 ± 0.18	-1.71 ± 0.12
CUACAGCAAUAUUACGCACG	-0.609 ± 0.07	0.378 ± 0.08
CUACAGCAAUAUUACGCAGC	-2.28 ± 0.24	-1.75 ± 0.36
CUACAGCAAUAUUACGCCUG	-1.43 ± 0.1	-0.209 ± 0.097
CUACAGCAAUAUUACGCUCC	-3.45 ± 0.24	-2.11 ± 0.32
CUACAGCAAUAUUACGGCGC	-3.96 ± 0.29	-1.68 ± 0.39
CUACAGCAAUAUUACGGCGG	-1.34 ± 0.084	-1.47 ± 0.094
CUACAGCAAUAUUACGGGGG	-3.39 ± 0.2	-2.26 ± 0.15
CUACAGCAAUAUUACGUAGC	-3.76 ± 0.26	-2.54 ± 0.33
CUACAGCAAUAUUACGUUUC	-3.69 ± 0.16	-2.7 ± 0.21
CUAGAGCAAUAUUACGAAGA	-3.61 ± 0.28	-1.94 ± 0.43
CUAGAGCAAUAUUACGAAGU	-2.56 ± 0.26	–
CUAGAGCAAUAUUACGACCA	-2.61 ± 0.23	-1.15 ± 0.28
CUAGAGCAAUAUUACGACUG	0.0552 ± 0.11	-0.585 ± 0.14
CUAGAGCAAUAUUACGAGAU	-3.54 ± 0.17	-1.67 ± 0.15

Sequence	self-splicing fitness (ln) (30 °C)	self-splicing fitness (ln) (37 °C)
CUAGAGCAAUAUUACGAUAA	-2.85 ± 0.21	-1.3 ± 0.23
CUAGAGCAAUAUUACGAUUA	-2.49 ± 0.23	-2.26 ± 0.23
CUAGAGCAAUAUUACGCCAG	-0.97 ± 0.1	-0.759 ± 0.21
CUAGAGCAAUAUUACGCCUC	-3.5 ± 0.2	-2.88 ± 0.34
CUAGAGCAAUAUUACGCGAG	-0.514 ± 0.11	0.0831 ± 0.13
CUAGAGCAAUAUUACGCGGU	-1.42 ± 0.092	-0.641 ± 0.13
CUAGAGCAAUAUUACGCUGG	–	-2.1 ± 0.33
CUAGAGCAAUAUUACGGAUG	-0.4 ± 0.095	0.311 ± 0.11
CUAGAGCAAUAUUACGGCAC	–	-0.856 ± 0.49
CUAGAGCAAUAUUACGGCUA	-3.41 ± 0.31	-1.17 ± 0.21
CUAGAGCAAUAUUACGGUGC	-3.31 ± 0.26	-2.32 ± 0.37
CUAGAGCAAUAUUACGGUGU	-4.1 ± 0.19	-2.92 ± 0.27
CUAGAGCAAUAUUACGUAAA	-3.81 ± 0.24	-1.84 ± 0.25
CUAGAGCAAUAUUACGUCAC	-3.34 ± 0.36	-1.72 ± 0.29
CUAGAGCAAUAUUACGUCAG	-0.419 ± 0.08	-0.271 ± 0.11
CUAGAGCAAUAUUACGUGCG	-0.299 ± 0.083	-0.255 ± 0.098
CUAGAGCAAUAUUACGUGGC	-3.87 ± 0.24	-1.8 ± 0.23
CUAGAGCAAUAUUACGUUAG	-1.27 ± 0.066	-0.217 ± 0.096
CUAGAGCAAUAUUACGUUUU	-3.96 ± 0.2	-3.8 ± 0.25
CUAUAGCAAUAUUACGAGAG	-3.63 ± 0.23	-2.73 ± 0.24
CUAUAGCAAUAUUACGAUAG	–	-2.54 ± 0.39
CUAUAGCAAUAUUACGAUCU	-3.99 ± 0.39	-1.91 ± 0.33
CUAUAGCAAUAUUACGAUUA	-3.05 ± 0.29	-0.967 ± 0.19
CUAUAGCAAUAUUACGCAGU	-3.51 ± 0.2	-2.55 ± 0.27
CUAUAGCAAUAUUACGCCCA	-3.06 ± 0.37	-1.7 ± 0.43

Sequence	self-splicing fitness (ln) (30 °C)	self-splicing fitness (ln) (37 °C)
CUAUAGCAAUAUUACGCCCG	-0.353 ± 0.24	-0.0929 ± 0.34
CUAUAGCAAUAUUACGCGAG	-1.85 ± 0.29	0.335 ± 0.21
CUAUAGCAAUAUUACGCUAG	-3.14 ± 0.41	-2.99 ± 0.47
CUAUAGCAAUAUUACGCUUC	-2.46 ± 0.36	-1.14 ± 0.31
CUAUAGCAAUAUUACGGUCG	0.227 ± 0.073	0.586 ± 0.11
CUAUAGCAAUAUUACGGUGC	-3.69 ± 0.28	-2.75 ± 0.29
CUAUAGCAAUAUUACGUAGU	-2.88 ± 0.16	-2.26 ± 0.23
CUAUAGCAAUAUUACGUCAC	-3.4 ± 0.28	-1.77 ± 0.31
CUAUAGCAAUAUUACGUGAC	-1.2 ± 0.15	-0.55 ± 0.16
CUAUAGCAAUAUUACGUUAG	-2.54 ± 0.16	-2.67 ± 0.19
CUAUAGCAAUAUUACGUUAU	-3.27 ± 0.21	-2.38 ± 0.32
CUAUAGCAAUAUUACGUUCU	-3.41 ± 0.35	-3.02 ± 0.47
CUCAAGCAAUAUUACGAAGG	-1.11 ± 0.071	-1.42 ± 0.15
CUCAAGCAAUAUUACGACAG	-1.19 ± 0.062	-0.407 ± 0.082
CUCAAGCAAUAUUACGACUG	-3.48 ± 0.17	-1.7 ± 0.2
CUCAAGCAAUAUUACGCAAU	-3.56 ± 0.31	-1.53 ± 0.32
CUCAAGCAAUAUUACGCGUA	-3.49 ± 0.22	-1.78 ± 0.15
CUCAAGCAAUAUUACGCUGC	-3.68 ± 0.21	-2.63 ± 0.19
CUCAAGCAAUAUUACGGCCU	-4.43 ± 0.39	-2.53 ± 0.32
CUCAAGCAAUAUUACGGCGA	-2.71 ± 0.2	-1.87 ± 0.23
CUCAAGCAAUAUUACGGCUU	-3.53 ± 0.18	-2.65 ± 0.21
CUCAAGCAAUAUUACGGGCA	-2.74 ± 0.15	-2.48 ± 0.16
